{
  "source": "patent JP2011115175A",
  "key": {"CD28Ig (human) [1]": {"biological_target": "CD28Ig (human) (UniProt P10747)", "experiment": "ELISA on CD28Ig-coated plates, detected with anti-human kappa conjugate"}, "[2]": {"biological_target": "ニワトリリゾチーム (chicken lysozyme) (chicken) (UniProt P00698)", "sequence (P00698 19-147 limits assumed)": "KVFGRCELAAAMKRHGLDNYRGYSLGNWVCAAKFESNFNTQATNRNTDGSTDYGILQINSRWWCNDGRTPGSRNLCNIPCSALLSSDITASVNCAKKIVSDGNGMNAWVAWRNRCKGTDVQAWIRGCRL", "experiment": "fluorescence quench titration; 200 nM Fab titrated with lysozyme in solution"}, "[3]": {"biological_target": "ニワトリリゾチーム (chicken lysozyme) (chicken) (UniProt P00698)", "experiment": "legend of Figure 7 (antigen binding graph, fluorescence quench titration)"}, "CD28Ig (human) [4]": {"biological_target": "CD28Ig (human) (UniProt P10747)", "experiment": "legend of Figure 11 (antigen binding graph, ELISA)"}, "[5]": {"biological_target": "ヒトグルタミン酸デカルボキシラーゼ65kDaアイソフォーム (human glutamic acid decarboxylase, GAD65) (human) (UniProt Q05329)", "sequence (Q05329 whole entry)": "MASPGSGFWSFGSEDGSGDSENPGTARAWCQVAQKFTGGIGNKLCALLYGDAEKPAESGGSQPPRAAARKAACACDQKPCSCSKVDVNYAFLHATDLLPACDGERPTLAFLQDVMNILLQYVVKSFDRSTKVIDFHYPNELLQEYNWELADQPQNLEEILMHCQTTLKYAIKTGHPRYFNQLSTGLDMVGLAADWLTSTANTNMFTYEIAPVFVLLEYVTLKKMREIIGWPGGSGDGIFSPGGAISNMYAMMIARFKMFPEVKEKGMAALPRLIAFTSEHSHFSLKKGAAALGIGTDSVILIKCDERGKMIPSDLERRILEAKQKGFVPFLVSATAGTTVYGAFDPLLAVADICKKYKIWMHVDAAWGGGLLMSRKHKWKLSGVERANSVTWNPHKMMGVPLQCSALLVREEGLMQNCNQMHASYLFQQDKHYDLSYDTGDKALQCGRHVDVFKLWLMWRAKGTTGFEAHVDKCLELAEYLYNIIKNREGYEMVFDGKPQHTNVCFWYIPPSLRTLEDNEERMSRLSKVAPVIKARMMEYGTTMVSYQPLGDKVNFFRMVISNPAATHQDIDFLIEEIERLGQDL", "experiment": "immunoprecipitation of 35S-labelled GAD65 with Protein G-Sepharose; midpoint read by eye"}},
  "data": [
    {"molecule": "マウス9.3 Fab (Fab of mouse 9.3 variable domains and human constant domains)", "values": [
      {"measurement": "EC50", "setting": "CD28Ig (human) [1]", "result": 20, "unit": "nM"}
    ]},
    {"molecule": "ヒト化D1.3 Fab (humanized D1.3 Fab, anti-chicken lysozyme)", "values": [
      {"measurement": "Kd", "setting": "[2]", "result": 23, "unit": "nM"},
      {"measurement": "Ka", "setting": "[3]", "result": "> 1e+08", "unit": "M⁻¹"}
    ]},
    {"molecule": "ヒト化抗ヒトCD28(Hu9.3)Fabフラグメント (Fab, from another filing, V domains shown) VH: EVQLVQSGGGLVQPGGSLRLSCAGSGFTFSDYGVHWVRQAPGKGLEWVSAIWAGGGTNYASSVMGRFTISRDNAKNSLYLQMNSLRAEDMAVYYCARDKGYSYYYSMDYWGQGTLVTVSS VL: DIVMTQSPDSLAVSLGERATINCRASESVEYYVTSLMAWYQQKPGQPPKLLIYAASNVESGVPDRFSGSGSGTNFSLTISSLQAEDVAVYYCQQSRKVPYTFGQGTKLEIKR", "values": [
      {"measurement": "EC50", "setting": "CD28Ig (human) [1]", "result": 630, "unit": "nM"},
      {"measurement": "Ka", "setting": "CD28Ig (human) [4]", "result": "> 1e+06", "unit": "M⁻¹"}
    ]},
    {"molecule": "マウスNGAD65 Fabフラグメント (mouse NGAD65 variable domains and constant domains) (Fab, from another filing, V domains shown) VH: QVQLQQPGAELVKPGASVKMSCKASGYRFSSYNMHWVKQTPGQGLEWIGAIYPRSGDTSYNQKFKGKATLTADKSSSTAYMQLGSLTSEDSAVYYCVRSYDYDAPFAFWGQGTLVTVSA VL: VLTQTPLSLPVSLGDQASISCRSSQSLEHNNGNTYLNWYLQKPGQSPQLLIYRVSNRFSGGLDRFSGSGSGTDFTLKISRVEAEDLGVYFCLQVTHVPFTFGSGTKLEIKR", "values": [
      {"measurement": "EC50", "setting": "[5]", "result": 0.00036, "unit": "nM"}
    ]}
  ]
}
